These results are taken from EP4778588A2, “ENZYMATICALLY CLEAVABLE LINKER AND LIGAND-ERIBULIN CONJUGATE CONTAINING SAME” (priority 2022, dated 2024).

This test relates to KATO III cell line (human gastric cancer cells). Nature of the test: Cell viability test (same method as for Calu-6) in KATO III cells. The format is cell-based. As to conditions: average DAR of 2 to 3, read-out: EC/IC50 values for cell viability. As to the method: Human Calu-6 cells (manufacturer: Procell, product code: CL-327, human lung cancer cells) were resuscitated and seeded into a 96-well culture plate. The culture medium used was DMEM/F12 (manufacturer: Hyclone, product code: SH30023.01), supplemented with 10% FBS (manufacturer: Gibco, product code: 10099141). Each well contained 2,500 cells in 150 µl of medium. The plate was incubated at 37°C in a 5% CO2 incubator. Approximately 20 hours later, 50 µl of medium containing different antibody-drug conjugates were added to each well, setting the final drug concentrations at 0 to 100 nM across 12 dilution gradients (initial concentration: 100 nM; subsequent 5-fold serial dilutions across 10 gradients; last gradient containing no drug, and each sample was tested in duplicate wells). […] After a 2-minute reaction, fluorescence intensity was measured using a Tecan Spark instrument, following the reagent kit's recommended protocol. […] EC/IC50 values were calculated using four-parameter fitting.
Further, following the above examples, antibody-drug conjugates (ADCs) of Trastuzumab and Bemarituzumab conjugated with the linker-toxin MC-VAGGFG-PAB-Eribulin were prepared for validation. […] Activity was measured using the SK-BR-3 cell line (human breast cancer cells) and KATO III cell line (human gastric cancer cells).

B1: Bemarituzumab MC-VAGGFG-PAB-Eribulin: Bemarituzumab conjugated with the linker-toxin MC-VAGGFG-PAB-Eribulin (conjugate, chains of the INN, looked up)
VH: QVQLVQSGAEVKKPGSSVKVSCKASGYIFTTYNVHWVRQAPGQGLEWIGSIYPDNGDTSYNQNFKGRATITADKSTSTAYMELSSLRSEDTAVYYCARGDFAYWGQGTLVTVSS
VL: DIQMTQSPSSLSASVGDRVTITCKASQGVSNDVAWYQQKPGKAPKLLIYSASYRYTGVPSRFSGSGSGTDFTFTISSLQPEDIATYYCQQHSTTPYTFGQGTKLEIK
modifications: MC-VAGGFG-PAB-Eribulin
Regarding B1, the IC50 came out at 0.097 nM.
